B1: AfsR (dephosphorylated AfsR) (Streptomyces coelicolor A3(2)) (protein)
chain: MDGGPRVPEQRRPGFPAEEEESGALRFGVLGPVRAWRDGETLATGSPQQRALLAALLLREGRTATAGELIDALWGEEPPSQALAAVRTYASRLRKVLDPGVLVSESGGYAVRGLAEGALDLARAQDLASAAEKARSAGDLCHARDLLRRALDLWDGEVLAGVPGPYAQTQRVRLGEWRLQLLETRLDMDLDQGCHAEAVSELTALTAAHPLRERLRELLMLALYRSGRQAEALAVYADTRRLLADELGVDPRPGLQELQQRILQADPALAELSAATAETATATLRPAQLPATVSDFTGRAAFVRELSDVLSAASGESASGRVMAVSALAGIGGVGKTTLAVHVAHRARAAFPDGQLYVDLQGAGARPAEPETVLGSFLRALGTADSAIPDSLEERAALYRSVLDGRRVLVLLDNARDAAQVRPLLPGTDGCAALVTARVRMVDLAGAHLVDLDVMAPEEALALFTKIVGEERVASERQAALDVVGACGFLPLAIRIAASRLAARRTWTVSVLAAKLADERRRLDELQAGDQAVEATFELGYGQLEPAQARAFRLLGLADGPDISLAAAAAVLDLPAQDTEDLLESLVDTSLLESAAPGRYRFHDLVRLYARACAERTERDGNAPSERGAALSRLLDFYLATAAGVYAIERPGDRLVDGLEPTEYPGLTFTEGSAALDWLYTEAAPLLACVRQSAGTARLRRAVDLLWAAKDLTESGANSHQYEATARAMCDATGSAADTRAEGRARTVLSDVLLVSGRIEHAEEEARLAMRLAGSAEDSAAVSWVANNRGLVCLHQRRYAEGKGLFHQAIAGFRATDNRAGEASALSNLSRAQLGMGNVAEAVDIARQGLAVYAELGRTMRLANGHFALGVALTRAGRHEEALGEFAEALDLFGDHRQRLWEGATNFRLAEVHLAAGRPSSAAQHAEQALALGCIGGDRMRGNVLALLGRALSALGQADRARACWREALSLYEQHDAQEVGEVRALLARSVAR
notes: full-length, 993 residues, pET28a (His-tagged), E. coli BL21(DE3), Ni-NTA and SEC; wild type treated with lambda phosphatase (E. coli protein carries pT337); mainly monomer
B2: phosphorylated AfsR (phos-AfsR) (Streptomyces coelicolor A3(2)) (protein)
chain: B1 chain
notes: full-length, 993 residues, pET28a (His-tagged), E. coli BL21(DE3); dephosphorylated, then phosphorylated in vitro by AfsKΔC (pS22, pT337, pS391, pT506, pS953 by MS), SEC

Substrate: Nc1ncnc2c1ncn2[C@@H]1O[C@H](COP(=O)(O)OP(=O)(O)OP(=O)(O)O)[C@@H](O)[C@H]1O
Test: Malachite green phosphate ATPase assay
Format: biochemical, Streptomyces coelicolor
Details: 5 μM protein, 20 mM Tris-HCl pH 7.5, 150 mM NaCl, 5 mM MgCl2, 30 min

Row | Protein | Km (dephosphorylated) [µM] | kcat (dephosphorylated) [s⁻¹] | Km (phosphorylated by AfsKΔC) [µM] | kcat (phosphorylated by AfsKΔC) [s⁻¹]
1 | B1 | 1160 ± 231 | 0.0453 ± 0.00356 |  | 
2 | B2 |  |  | 767 ± 163 | 0.070 ± 0.00515

— publication PMC10936776, “Structural and functional characterization of AfsR, an SARP family transcriptional activator of antibiotic biosynthesis in Streptomyces” (PLOS Biology, 2024)
